Assay [1] concerns the target HLA-B*15:01. Description: IEDB peptide-MHC binding, purified MHC/competitive/fluorescence; filed as Kd, often an IC50 or EC50 that approximates it; ≥ and ≤ were set here for values at or beyond the usual limits of such assays. Particulars: source organism: Human immunodeficiency virus 1.
A further assay addresses HLA-B*39:01. Described as above. The conditions noted are these: source organism: Human immunodeficiency virus 1.
In assay [2] the target is HLA-A*30:01. The assay is described as above. The conditions noted are these: source organism: Human immunodeficiency virus 1.
Assay [3] concerns the target HLA-A*01:01. Described as above. The conditions noted are these: source organism: Human immunodeficiency virus 1.
The next assay concerns the target HLA-B*08:02. Described as above. Particulars: source organism: Human immunodeficiency virus 1.
Another assay deals with HLA-B*15:17. Described as above. The conditions noted are these: source organism: Human immunodeficiency virus 1.
Another assay deals with HLA-A*26:01. Described as above. Particulars: source organism: Human immunodeficiency virus 1.
For assay [4], the target named is HLA-A*11:01. The assay is described as above. The conditions noted are these: source organism: Human immunodeficiency virus 1.
In assay [5] the target is HLA-B*57:01. The description is as above. Particulars: source organism: Human immunodeficiency virus 1.
Another assay has as its target HLA-B*08:03. Description: IEDB peptide-MHC binding, purified MHC/direct/fluorescence; filed as Kd, often an IC50 or EC50 that approximates it; ≥ and ≤ were set here for values at or beyond the usual limits of such assays. The conditions noted are these: source organism: Bacillus cereus H3081.97.
For another assay, the target named is HLA-B*46:01. Description: IEDB peptide-MHC binding, purified MHC/competitive/fluorescence; filed as Kd, often an IC50 or EC50 that approximates it; ≥ and ≤ were set here for values at or beyond the usual limits of such assays. The conditions noted are these: source organism: Escherichia coli str. K-12 substr. MG1655.
In assay [6] the target is HLA-A*29:02. Description: IEDB peptide-MHC binding, purified MHC/direct/fluorescence; filed as Kd, often an IC50 or EC50 that approximates it; ≥ and ≤ were set here for values at or beyond the usual limits of such assays. The conditions noted are these: source organism: Escherichia coli O157:H7 str. EC869.
Assay [7] has as its target HLA-B*15:01. Described as above. The conditions noted are these: source organism: Escherichia coli O157:H7 str. EC869.
In assay [8] the target is HLA-A*30:01. Described as above. Particulars: source organism: Escherichia coli O157:H7 str. EC869.
The target in another assay is HLA-A*02:50. The assay is described as above. Particulars: source organism: Escherichia coli O157:H7 str. EC869.
Another assay has as its target HLA-A*24:03. The assay is described as above. Particulars: source organism: Escherichia coli O157:H7 str. EC869.
A further assay deals with HLA-A*02:11. Described as above. Particulars: source organism: Escherichia coli O157:H7 str. EC869.
Assay [9] addresses HLA-B*18:01. The assay is described as above. Particulars: source organism: Escherichia coli O157:H7 str. EC869.
A further assay concerns the target HLA-A*23:01. The assay is described as above. Particulars: source organism: Escherichia coli O157:H7 str. EC869.
Assay [10] concerns the target HLA-B*58:01. The assay is described as above. The conditions noted are these: source organism: Escherichia coli O157:H7 str. EC869.
The target of assay [11] is HLA-B*07:02. The assay is described as above. Particulars: source organism: Escherichia coli O157:H7.
Assay [12] addresses HLA-B*51:01. The description is as above. Particulars: source organism: Escherichia coli O157:H7.
For a further assay, the target named is HLA-B*44:02. The description is as above. Particulars: source organism: Escherichia coli O157:H7 str. EC869.
For the next assay, the target named is HLA-B*40:01. The description is as above. Particulars: source organism: Escherichia coli O157:H7 str. EC869.
The target in the next assay is HLA-A*02:10. Described as above. Particulars: source organism: Escherichia coli O157:H7 str. EC869.
Assay [13] has as its target HLA-B*57:01. The description is as above. Particulars: source organism: Escherichia coli O157:H7 str. EC869.
The target of assay [14] is HLA-A*29:02. Description: IEDB peptide-MHC binding, purified MHC/competitive/fluorescence; ≥ and ≤ were set here for values at or beyond the usual limits of such assays. Particulars: source organism: Homo sapiens.
A further assay concerns the target HLA-B*37:01. The description is as above. The conditions noted are these: source organism: Homo sapiens.
The target in another assay is HLA-B*35:01. Described as above. Particulars: source organism: Homo sapiens.
Assay [15] addresses HLA-A*01:01. The assay is described as above. The conditions noted are these: source organism: Homo sapiens.
A further assay concerns the target HLA-B*08:01. The assay is described as above. The conditions noted are these: source organism: Homo sapiens.
Another assay has as its target HLA-A*24:02. The description is as above. The conditions noted are these: source organism: Homo sapiens.
The target in the next assay is HLA-A*31:01. Described as above. Particulars: source organism: Homo sapiens.
The target in a further assay is HLA-B*40:02. Described as above. The conditions noted are these: source organism: Homo sapiens.
In the next assay the target is HLA-A*02:01. The description is as above. The conditions noted are these: source organism: Homo sapiens.
Assay [16] deals with HLA-B*18:01. The description is as above. The conditions noted are these: source organism: Homo sapiens.
Assay [17] has as its target HLA-B*58:01. The description is as above. The conditions noted are these: source organism: Homo sapiens.
The target of assay [18] is HLA-A*11:01. The description is as above. The conditions noted are these: source organism: Homo sapiens.
A further assay addresses HLA-B*14:02. The assay is described as above. The conditions noted are these: source organism: Homo sapiens.
A further assay addresses HLA-A*03:01. Described as above. Particulars: source organism: Homo sapiens.
The target in the next assay is HLA-A*25:01. Described as above. The conditions noted are these: source organism: Homo sapiens.
Assay [19] deals with HLA-B*07:02. Described as above. Particulars: source organism: Homo sapiens.
For a further assay, the target named is HLA-B*53:01. The assay is described as above. The conditions noted are these: source organism: Homo sapiens.
The target of assay [20] is HLA-B*51:01. Described as above. The conditions noted are these: source organism: Homo sapiens.
Another assay concerns the target HLA-A*68:02. The description is as above. Particulars: source organism: Homo sapiens.
The target of another assay is HLA-B*44:03. The description is as above. The conditions noted are these: source organism: Homo sapiens.

By Kd is commonly meant the concentration at which binding is half-saturated. A lower Kd goes with higher affinity. For the sequence GTEEIRSLY, the Kd with HLA-B*15:01 [1] was ≥ 20 µM; with HLA-B*39:01 it was ≥ 20 µM; in the assay with HLA-A*30:01 [2], 13 µM; with HLA-A*01:01 [3] it was 0.012 µM; in the assay with HLA-B*08:02 it was ≥ 20 µM; in the assay with HLA-B*15:17, 0.0605 µM. Further, the Kd was 0.429 µM with HLA-A*26:01, ≥ 20 µM with HLA-A*11:01 [4] and ≥ 20 µM with HLA-B*57:01 [5].

FPKVRAQEL returned a Kd in the assay with HLA-B*08:03 of 0.209 µM.

For the sequence ESMMGSTAM, the Kd with HLA-B*46:01 was 3 µM; with HLA-A*29:02 [6], ≥ 20 µM; in the assay with HLA-B*15:01 [7], 0.031 µM; with HLA-A*30:01 [8], ≥ 20 µM; with HLA-A*02:50, ≥ 20 µM; in the assay with HLA-A*24:03, ≥ 20 µM. For the same sequence, the Kd is ≥ 20 µM with HLA-A*02:11; ≥ 20 µM in the assay with HLA-B*18:01 [9]; ≥ 20 µM with HLA-A*23:01; ≥ 20 µM in the assay with HLA-B*58:01 [10]; 0.316 µM with HLA-B*07:02 [11]; ≥ 20 µM with HLA-B*51:01 [12]. In addition, the Kd in the assay with HLA-B*44:02, with HLA-B*40:01, with HLA-A*02:10 and in the assay with HLA-B*57:01 [13] was ≥ 20 µM throughout.

One may read the IC50 as the concentration at which inhibition is half-maximal. A high value points to weaker potency. For YFYYNAFHWAI, the IC50 with HLA-A*29:02 [14] is 0.661 µM; with HLA-B*37:01, ≥ 20 µM; with HLA-B*35:01, ≥ 20 µM; with HLA-A*01:01 [15] it was ≥ 20 µM; with HLA-B*08:01 it was ≥ 20 µM; with HLA-A*24:02 it was 1.13 µM. The IC50 was ≥ 20 µM with HLA-A*31:01; ≥ 20 µM in the assay with HLA-B*40:02; 2.91 µM in the assay with HLA-A*02:01; ≥ 20 µM with HLA-B*18:01 [16]; ≥ 20 µM with HLA-B*58:01 [17]; ≥ 20 µM with HLA-A*11:01 [18]. The 50% inhibitory concentration (IC50) was 15.1 µM with HLA-B*14:02; ≥ 20 µM with HLA-A*03:01; ≥ 20 µM in the assay with HLA-A*25:01; ≥ 20 µM in the assay with HLA-B*07:02 [19]; ≥ 20 µM with HLA-B*53:01; ≥ 20 µM with HLA-B*51:01 [20]. The IC50 was 3.62 µM in the assay with HLA-A*68:02 and ≥ 20 µM with HLA-B*44:03.
